Data set [1] deals with the molecule itself. Kind of data set: crystal structure.
Data set [2] concerns the molecule itself. Kind of data set: crystal structure. This is another data set of the same source.

Where a chain is given by its changes, count along the chain named. Like-named read-outs stand apart in the source and are kept apart here.

Consider 2 proteins from PMC5959753 (Cell chemical biology, 2018).

One may read the stoichiometry N as the number of molecules, sites or subunits per partner or assembly.

B1: Neurospora crassa C-S lyase Egt2, wild type (enzyme, UniProt A7UX13 1-473, looked up)
chain: MVATTVELPLQQKADAAQTVTGPLPFGNSLLKEFVLDPAYRNLNHGSFGTIPSAIQQKLRSYQTAAEARPCPFLRYQTPVLLDESRAAVANLLKVPVETVVFVANATMGVNTVLRNIVWSADGKDEILYFDTIYGACGKTIDYVIEDKRGIVSSRCIPLIYPAEDDDVVAAFRDAIKKSREEGKRPRLAVIDVVSSMPGVRFPFEDIVKICKEEEIISCVDGAQGIGMVDLKITETDPDFLISNCHKWLFTPRGCAVFYVPVRNQHLIRSTLPTSHGFVPQVGNRFNPLVPAGNKSAFVSNFEFVGTVDNSPFFCVKDAIKWREEVLGGEERIMEYMTKLAREGGQKVAEILGTRVLENSTGTLIRCAMVNIALPFVVGEDPKAPVKLTEKEEKDVEGLYEIPHEEANMAFKWMYNVLQDEFNTFVPMTFHRRRFWARLSAQVYLEMSDFEWAGKTLKELCERVAKGEYKESA
modifications: PLP covalently bound to K247 (internal aldimine); selenomethionine in the derivative crystals used for the final structure
Consider B1, for which the “stoichiometry N” value in “crystal structure [1]” came to 2.

B2: Neurospora crassa C-S lyase Egt2 Y134F (enzyme, UniProt A7UX13 1-473, looked up)
chain: B1 chain with Y134F
modifications: PLP covalently bound to K247 (internal aldimine)
With B2, the “stoichiometry N” value in the data set “crystal structure [2]” stood at 2.
